From US20250073334A1

Molecular target: CpG-ST-E2 nanoparticle (ST-E2 with CpG 1826 conjugated in the internal cavity) (Geobacillus stearothermophilus)
Experiment: SpyTag-SpyCatcher reaction, SDS-PAGE

Which units of H5 conjugated per nanoparticle (units of H5 per nanoparticle) does the source give for SpyCatcher-H5 hemagglutinin construct here?
Its units of H5 conjugated per nanoparticle (units of H5 per nanoparticle) is 17.1.
